Reference: patent US20180346580A1 (INTERVET, published 2018)
Changes are numbered by the printed parent chain.

B1: mouse anti-canine IL-4Rα monoclonal antibody 6C12 (antibody, V domains shown)
VH: QIQLIQSGPELKKPGETVKISCKASGYTFTTFGMSWVKQAPGKGLKWMGWISTYSGVPTYADDFKGRFAFSLETSASTAYLQINNLKNEDTASYFCARHTFQSRGLAYWGQGTLVTVSA
VL: DIVMTQSHKFMSTSVGDRVSITCKASQDVITTVAWYQQKPGQSPKLLIYSASYRYTGVPDRFTGSGSGTDFTFTITSVQTEDLAVYYCQQHYSTPWTFGGGTKLEIK
notes: Hybridoma-derived mouse antibody; also called mAb 6C12
B2: mouse anti-canine IL-4Rα monoclonal antibody 4H3 (antibody, V domains shown)
VH: QVQLQQPGAELVKPGASVKLSCKASGYTFTNYWIHWMKQRPGRGLEWIGRIDPNSGGTKYNEKFKSKATLTVDKPSITAYMQLSSLTSEDSAVYYCAAFGSTYGFAYWGQGTLVTVSA
VL: DIVMSQSPSSLAVSAGEKVTMSCKSSQSLLNSRTRKNYLAWYQQKPGQSPKLLIYWASTRESGVPDRFTGSGSGTDFTLTISSVQAEDLAVYYCKQSYNLYTFGGGTKLEIK
notes: Hybridoma-derived mouse antibody; also called mAb 4H3
B3: mouse anti-canine IL-4Rα monoclonal antibody 11B6 (antibody, V domains shown)
VH: EVQLQESGPGLAKPSQTLSLTCSVTGYSITSDYWNWIRKFPGNKLEYMGYINYSGNTYYNPSLKSRISITRDTSKNQYYLQLNSVTTEDTATYYCARYGGLRQGSWHFDVWGPGTTVTVSS
VL: QIVLTQSPAIMSASPGEKVTISCSASSSVSYMYWYQQKPGSSPKPWIYRTSNLASGVPARFSGSGSGTSYSLTISSMEAEDAATYYCQQYHSYPATFGGGTKLEIK
notes: Hybridoma-derived mouse antibody; also called mAb 11B6
B4: mouse anti-canine IL-4Rα monoclonal antibody 2E2 (antibody, V domains shown)
VH: EVKLVESGGGLVQPGGSLKLSCVASGFTFSDYHMHWVRQTPEKRLEWVAYISKGGGSTYYPDTEKGRFTISRDNAKNTLYLQMSRLKSEDTAMYYCARSPGPSSFYWYFDVWGTGTTVTVSS
VL: DIQMTQSPASLSASVGETVTITCRASENIYSYLAWYQQKQGKSPQLLVYNAKTLAEGVPSRFSGSGSGTQFSLKINSLQPEDFGSYYCQHHYGIPVTVGVGTKLELK
notes: Hybridoma-derived mouse antibody; also called mAb 2E2
B5: mouse anti-canine IL-4Rα monoclonal antibody 4D8 (antibody, V domains shown)
VH: EVTLVESGGGLVQPGGSLKLSCAASGFTFSDYYMYWVRQTPEKRLEWVAYISPGGGSTYYPDTIKGRFTISRDNAKNTLYLQMSRLKSEDTAMYYCTRHGSPYGSSRGAWFAYWGQGTLVTVSA
VL: B4 VL with A51G, S60A, Y92D, V98F, V100A
notes: Hybridoma-derived mouse antibody; also called mAb 4D8
B6: 1A3 (antibody, V domains shown)
VH: EVQLVESGGDLVKPGGSLKLSCAASGFTFSDFGMHWVRQAPEKGLGWVAYISSGSGTIYYADTVRGRFTISRDNVKNTLFLQMTSLRSEDTAMYYCVRGDLYYGSSFDAYWGRGTLVTVSA
VL: QIVLSQSPAILSASPGEKVTMTCRASSSVSFMFWYQQKPGSSPKPWIYDTSNLASGVPARFSGSGSGTSYSLTISRVEAEDAATYYCQQWSSNPLTFGAGTKLELK
notes: member of the group m16; also called mAb 1A3; mouse anti-canine IL-4Rα monoclonal antibody 1A3
B7: 10F2 (antibody, V domains shown)
VH: QVHLKESGPGLVAPSQSLSITCTVSGFSLTSYGVSWVRQPPGEGLEWLGVIWGDGSTYFHSALISRLSISKDDSKSQVFLKLNSLQTDDTATYYCAKQGTIYDGYYNYAMDYWGQGTSVTVSS
VL: DIVMSQSPSSLTVSVGEKVTMSCKSSQNLLYGGNQKNYLAWYQQKPGQSPKLLIYWASTRESGVPDRFTGSGSGTDFTLTISSVRAEDLAVYYCQQYYDYPYTFGGGTKLEIK
notes: member of the group m16; also called mAb 10F2; mouse anti-canine IL-4Rα monoclonal antibody 10F2
B8: 1B12 (antibody, V domains shown)
VH: EVQLQQSGPELVKPGASVKISCKASGYTFTDYYMNWVKQSHGKSLEWIGDIIPSNGGTSYNQKFKGKATLTVDKSSSAAYMELRSLTSEDSAVYYCARGISYYGNRYYFTMDYWGQGTSVTVSS
VL: DIVMTQAAPSVPVTPGESVSISCRSSKSLLHSNGNTYLFWFVQRPGQSPQLLIYRMSNLASGVPDRFSGSGSGTAFTLRISRVEAEDVGVYYCMQHLEYPFTFGSGTKLDIK
notes: member of the group m16; also called mAb 1B12; mouse anti-canine IL-4Rα monoclonal antibody 1B12
B9: 1A9 (antibody, V domains shown)
VH: QVPLQQSGPELVKPGASVKISCKASGYAFSSSWMNWVKQRPGKGLEWIGRIYPGDGDTKYNGKFKGKATLTADKSSSTAYMQLSSLTSEDSAVYFCARDDYDEASWGQGTLVTVSA
VL: DIVMTQSQKFMSTSVGDRVSITCKASQNVRSAVAWYQQKPGQSPKSLIYLASNRHTGVPDRFTGSGSGTDFTLTISNVQSEDLADYFCLQHWNYPFTFGSGTKLEIK
notes: member of the group m16; also called mAb 1A9; mouse anti-canine IL-4Rα monoclonal antibody 1A9
B10: 11D3 (antibody, V domains shown)
VH: QIQLVQSGPELKKPGETVKISCKASGYIFTTYGMYWVKQAPGKGLKWMGWINTYSGVPTYVDDFKGRFAFSLETSASTAYLQINNLKNEDTATYFCVVAGWFAYWGQGTLVTVSA
VL: DIKMTQSPSSMYASLGERVTITCKASQDIKSYLSWFQQKPGKSPKTLIYRANILIDGVPSRFSGSGSGQDYSLTISSLEYEDMGIYYCLQYDEFPYTFGGGTKLEIK
notes: member of the group m16; also called mAb 11D3; mouse anti-canine IL-4Rα monoclonal antibody 11D3
B11: 10E10 (antibody, V domains shown)
VH: QVQLQQSGPELVKPGASVKLSCKASGYTFTTYDIHWVKQRPGQGLEWIGWIYPRDGRTTYNEKFKAKATLTVDTSSTTAYMELHSLTSEDSAVYFCARSSPFGYWGQGTTLTVSS
VL: DIQMTQSSSYLSVSLGGRVTITCKASDHINNWLAWYQQKPGNAPRLLISGATSLETGVPSRFSGSGSGKDYTLSITSLQTEDAATYHCHQYWSIPYTFGGGTKVEIK
notes: member of the group m16; also called mAb 10E10; mouse anti-canine IL-4Rα monoclonal antibody 10E10

Target: T1, canine IL-4 receptor alpha chain (full length) expressed on the surface of CHO DG44 cells (canine)
T1 construct: also called cIL-4Rα; CHO-cIL-4Rα
T1 chain: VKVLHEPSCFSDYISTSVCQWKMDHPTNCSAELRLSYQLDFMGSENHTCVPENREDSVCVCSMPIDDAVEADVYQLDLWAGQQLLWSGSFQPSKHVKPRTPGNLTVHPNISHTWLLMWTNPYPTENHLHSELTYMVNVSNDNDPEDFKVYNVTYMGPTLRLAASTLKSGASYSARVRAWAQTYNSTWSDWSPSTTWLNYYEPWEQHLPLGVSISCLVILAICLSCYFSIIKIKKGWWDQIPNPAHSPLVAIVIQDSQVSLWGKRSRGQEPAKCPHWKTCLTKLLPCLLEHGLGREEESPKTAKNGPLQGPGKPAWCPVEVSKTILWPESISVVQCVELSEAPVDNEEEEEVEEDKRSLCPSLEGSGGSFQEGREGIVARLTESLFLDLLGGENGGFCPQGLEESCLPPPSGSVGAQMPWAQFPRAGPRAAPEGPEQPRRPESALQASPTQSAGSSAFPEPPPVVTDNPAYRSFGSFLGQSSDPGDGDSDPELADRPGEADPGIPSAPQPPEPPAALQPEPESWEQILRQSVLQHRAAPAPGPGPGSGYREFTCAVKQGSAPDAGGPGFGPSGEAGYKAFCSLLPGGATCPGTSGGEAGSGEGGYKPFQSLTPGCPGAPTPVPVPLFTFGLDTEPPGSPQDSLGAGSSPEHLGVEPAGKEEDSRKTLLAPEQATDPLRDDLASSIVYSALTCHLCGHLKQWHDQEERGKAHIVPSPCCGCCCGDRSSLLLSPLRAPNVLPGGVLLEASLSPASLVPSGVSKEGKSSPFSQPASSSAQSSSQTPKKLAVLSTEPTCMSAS
Assay: flow cytometry, binding to CHO-cIL-4Rα cells
With B1 the EC50 was 8.6 nM. B2 was tested, and the EC50 was 1.6 nM. In the case of B3, the EC50 is reported as 7.5 nM. Work on B4 yielded an EC50 of 1.2 nM. Work on B5 yielded an EC50 of 1.1 nM.

Target: T1, canine IL-4 receptor alpha chain (full …)
Assay: flow cytometry ligand blockade on CHO-cIL-4Rα cells; competitor biotinylated canine IL-4 at 0.32 µg/mL
Description: Procedure: [0247] 1. CHO-DH44-canIL-4Rα cell grown to 2-4 ×10⁶ cells/mL with more than 96% viability. [0248] 2. The cells were spun down, the supernatant discarded, and the cells were suspended in FACS buffer to 2×10⁷ cells/mL. [0249] 3. The cells were distributed into a U-shape 96-well plate, 50 μl each well. [0250] 4. The anti-canine IL-4Rα mAbs in FACS buffer was diluted three-fold on a 96-well plate from top down to bottom well, starting at 50 μg/mL. [0251] 5. 50 μl of each diluted Ab was transferred into the cell plate and then incubated on ice for 30 min. [0252] 6. The cells were washed twice with FACS buffer. [0253] 7. The cells were resuspended into 100 μl of biotinylated canine IL-4 at 0.32 μg/mL in FACS buffer and incubated on ice for 30 min. [0254] 8. The cells were washed twice with FACS buffer. [0255] 9. The cells were responded into 100 μl of R-phycoerythin conjugated Streptavidin (1:1000 dilution) in FACS buffer and incubated on ice for 30 min. [0256] 10. The cells were washed twice with FACS buffer. [0257] 11. The cells were brought up to 300 μl in FACS buffer. [0258] 12. 10,000 cells were read for each sample by BD Accuri-C6. [0259] 13. The resulting readout were analyzed by FlowJo to get the mean fluorescent intensity (MFI).
B1 gave an IC50 of 19.3 nM. B2 gave an IC50 of 3.9 nM. For B3, the IC50 was 53.2 nM. Work on B4 yielded an IC50 of 2.1 nM. For B5, the IC50 was 4.2 nM.

Target: T2, HIS-tagged extracellular domain of canine IL-4 receptor alpha chain (canine)
T2 construct: also called canine IL-4 receptor alpha chain ECD HIS-tagged protein; extracellular domain of canine IL-4Rα
T2 chain: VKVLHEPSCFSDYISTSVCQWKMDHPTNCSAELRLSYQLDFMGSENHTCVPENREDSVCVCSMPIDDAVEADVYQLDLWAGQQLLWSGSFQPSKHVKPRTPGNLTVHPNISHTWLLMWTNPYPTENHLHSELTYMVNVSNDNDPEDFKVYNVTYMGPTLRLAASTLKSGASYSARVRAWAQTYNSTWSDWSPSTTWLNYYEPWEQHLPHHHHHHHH
Assay: ELISA on plate-coated HIS-tagged canine IL-4Rα ECD, detection with HRP goat anti-mouse IgG
Description: This procedure was repeated as necessary to obtain adequate amounts of mAb from each hybridoma clone. Harvested cell suspensions were centrifuged and the supernatants were filtered through 0.2 micron filter membranes. For antibody purification, each clone's supernatant was purified using a Protein G Sepharose 4 Fast flow 5 mL column (GE Healthcare) by gravity flow. After washing with Tris-EDTA (TE) buffer pH 8.0, bound antibodies were eluted using 0.1 M glycine buffer, pH 2.7, followed by pH neutralization using 1 M Tris, pH 8.0. Antibodies were concentrated and buffer exchanged into phosphate-buffered saline (PBS) using Centriprep YM-10 kDa NMWL centrifugal filter units (Millipore). Antibody concentrations were quantified using spectrophotometry. Purified anti-canine IL-4 receptor α chain mAbs were tested for reactivity with the HIS-tagged ECD domain of canine IL-4 receptor alpha chain by ELISA as follows: HIS-tagged canine IL-4 receptor alpha chain protein is diluted to 10 μg/mL in coating buffer (Carbonate/Bicarbonate pH 9.0) and dispensed at 100 μl/well in 96-well flat bottomed ELISA plates (NUNC). The plates are incubated at 4° C. overnight. The plates are then washed three times with phosphate buffered saline containing 0.05% Tween-20 (PBST). Next, 200 μl of blocking buffer (5% skim milk in PBST) is added to each well and the plates are incubated at 37° C. for 60 minutes. The plates are then washed three times with PBST. Next, 100 μl of test mAbs diluted in blocking buffer is added to the first wells of the appropriate columns. Test mAbs are then diluted three-fold to the appropriate plate position. Following incubation of the plates at 37° C. for 60 minutes, the plates are washed three times with PBST. Next, 100 μl per well of a 1:2,000 dilution of a horseradish peroxidase conjugated goat anti-mouse IgG (KPL) is added to the plates, which are then incubated at 37° C. for 60 minutes. Then the plates are washed three times with PBST, and 100 μl/well of 3,3′,5,5′ tetramethyl benzidine, (TMB) substrate (from KPL) is added to the plates. The color reaction is allowed to develop for 5-20 minutes at 37° C. prior to measuring absorbance at 650 nm.
Various mouse anti-canine IL-4Rα monoclonal antibodies (mAbs) were assayed by ELISA for their ability to bind the extracellular domain of canine IL-4Rα.
B6 was tested, and the “EC50 (read off the curve)” value was about 0.1 nM. In the case of B7, the “EC50 (read off the curve)” value is reported as about 0.3 nM. B8: binds. B9 was tested, and the “EC50 (read off the curve)” value was about 0.2 nM. B3 was tested, and the “EC50 (read off the curve)” value was about 0.3 nM. With B10 the “EC50 (read off the curve)” value was about 0.1 nM. B11: binds.
